The nature of the series: label from the status in PepcDB records.
For the sequence “MDTDWSNLAVRLERLLERFERIIDRHDPVLPRDPAFFDGAIAFRWRRSGEQGTFEPVTHPHLPDPADLVGIDLVREDLIRNTAQFMDGYPANNVLLWGERGTGKSTCVKGMLRLFADRGLRLVEVQRDDLMSLPALIAALRSVPRRFILFCDDLSFGEGEGGYRELKALLEGSIEAKPTNILFYATSNRRHLLPERMEDNLSSEIHPEEAVSEKLSLADRFGMALGFYPFSQDVYLSIVERYAEKFALPMEREALRKEAHLWAMYRGSRSGRSARQFIDDLAGRLGVRLNDRLEHHHHHH”, the protein production result is listed as “failed”. Under “MDTEADLFYRQLPKVELHAHLNGSVSFETMEKLIKRKPHLNIEHSMTAIRRGQRRTLDECFQVFKVIHQLVDSEEDILMVAKSVIQEFAADGVKYLELRSTPREVTETGLSKQRYIETVLEAIRQCKQEGVDIDVRFLVAVDRRHGPEVAMQTVKLAEDFLLSSDGTVVGLDLSGDPTVGHGKDLLAALQKAKNCGLKLALHLSEVPSQIDETELLLNLPPDRIGHGTFLHPDVGGSDSLVDKVCKQNIPIEICLTSNVKGQTVPSYDKHHFKYWYNRGHPCVLCTDDKGVFCTDLSQEYQLAASTFGLTKEAVWILSQQAIGYTFAPEPIKQRLEKTWAELKQQILQ” stands “failed”. Under “MDTIQKRPRTRLSPEKRKEQLLDIAIEVFSQRGIGRGGHADIAEIAQVSVATVFNYFPTREDLVDDVLNKVENEFHQFINNSISLDLDVRSNLNTLLLNIIDSVQTGNKWIKVWFEWSTSTRDEVWPLFLSTHSNTNQVIKTMFEEGIERNEVCNDHTPENLTKMLHGICYSVFIQANRNSSSEEMEETANCFLNMLCIYK” stands “failed”; under “MDTLKVRDAQEVEDAVRAAIANEQPIEIVGHGSKRSIGQLMSTNAVLELSALNAVTAYEPNELIITVQAGAPMADVLSLIDSKNQQFAFEPMDTATLLGTTPGAGTVAGMISAGLAGPRRIKAGGARDHLLGANAVSGFGESFKAGGKVVKNVTGYDLCKLLAGSWGTLAVMTEVTLKVTPRPESERTLVLRGLADVVANKAMTAALGSPYDVTGAAHLPGSALRTTAGALAEIAQPDQSLTLLRLEGITSSASHRAQSLRAALKSFGDAELIEDDASAALWRAVRDVEPFAASGPRALWPVWRIVCPPAAGGAFGEQLSRESGGEVIYDWGGGLIWAALPPATDGHAKALRQRVEKIGGHATLIRGSDAVRAGIDIFHPQPAGLAALGSRVKRSFDPTNILNRGRMSRGSAT”, “failed”. For the sequence “MDTNGVLYAANMTNALAKEIPESKWDIQLIPELGTLRKLFIHIVRVRDVYRDGLKTGSIKFPGRLASDEHRLLDELERSMEELVFEFKQTTFNSIKMGENYLSIMELLGTVIQHEGIHQGQYYVALKQSGINLPKQWVQDWHM”, the protein production result is “not failed”.

With “MDTPPTVFSIIIPVYNRPDEVRELLESLLIQTNSDFEVIIVEDGSSVCCDKEVDRVRELLRIQYVRVPNGGPAAARNIGARMAVGEYLLILDSDVVLPSGYIAAVKKRIEQMQADAFGGPDAAAEGFSPIQKAINYAMTSFFTTGGIRGGRRVRLDKFYPRSFNFGCKLSVYRQLGGFSEEMRFGEDIDFSLRLFKAGYNVCLFPEAFVFHKRRIDFKKFFRQVYNSGIARIHLQRRHPGSMKPVHILPALFTLGSVILAVGQFFCPWSLLPLLLLALLFLLDAWHTNRSLRIAILAVPASFVQLWGYGSGFLVACWRCYVLGHQEFRAFDKTFYN”, the protein production result is “failed”.

As for “MDTRFCSSLLIKNLNTFPASNKEIMNVTVSEAERNAGDERPDLQACAEAYAIVNSAFTKAVTFFKQAYYSKIVNIEKKVSMAVDICKTDFNVLGYQINPLIEKNRQTKILLSMEQIVSHMVSS”, the protein production entry is on record as “failed”. Under “MDTTCLVLTWMGSRVPIETIEEDGEFDWEAAVKEIDLACLKTTNAHPPITENLTKPPAKRQSTLDKFIGRTEPKPENHQVVSECGGNDNDNSLLVEIDPEAAKTWIYRGLLRLLTF” stands “failed”; under “MDTTFGLDLARVETLFKRELRRFDELHPRSAQAYRENRRHWLYGAPLHWMQQWPGNCPLLVKEAQGARVTDIDGQQYVDFALGDSGAMFGHAQPAVADAIARQARRGSTLMLPTEDSLWVGAELARRFGLPYWQVTTSATDANRFVLRLCRMLSGRDKVVVFNCNYHGSVDESQVEFDAAGRMVPRAGVHPNGVRHATTTRLVEFNDLDALEAALAHGDVAAVLTEPFMTNVGMVPPAEGFHAGLRELTRRHDVALIIDETHTISCGPAGYSGAHGLEPDFFVLGKCIAGGIPSAVWGCSQAQAERIWAVLPHFRPGQAINHFGFGGTLAGNALQLAAMRATFAEVMTEDAYRHMFQLAAQLEAGVRATLEELRLPWHVTRIGARVEYLFMTHAPRNGGEAHHARNGLIEACLHLYLLNRGVLLTPFHNMALTCPATRAEDVELHDRLLRDCLGELLERPS”, “failed”; under “MDTVWMEIWTTVRNEFADIPDVAEATRIVLRLGMAVALGGLLGYERERSGKAAGLRTHMLVALGAALFVLVPLQGGMEVGDLSRVLQGVIAGIGFLGAGAIIKLGNEGEIRGLTTSAGIWLTAAIGVAAGMGREATALASTLIALFVLAALRHLEKRIAARDDKRVVAQPPP”, “failed”. Consider “MDVFSEILNGIGRLLLQPALYVGIILVIIAGFNRVKWERKSFSISIYSPWLELKNFFGVSLLFGLVLSIITTLIGFSVMIEWIAIFNAVACFLLIVGMFRLSSTAFTIGITSLIFYFCYYFDVNLSPFTNLEFTYDAIFIDNFMISMTFLLAILLFVEAFLIQYTSAKNPSPSLRKSKRGKLVGSFQLRKLWFVPLVVFIPGDVFTKIFEWWPVFTIGSESYSLIILPLFIGFQQQVQAQLPEEASKKIAVQVTTLATIIAVAGLIGIVMPVLTLFAFMFAVIGRFWISYRHYRSEQLLPKKFGPQPDGLVVLGARESTPSTRLNLKAGEKITEVNGQKVHNREELYEALNLNRAFCKLKVIDNAGEPRFEQTALYENESFELGLLLVEPR”, for which the protein production result is given as “failed”. Under “MDVGESNERVKDDSALQASPRSPLSSIDLAIDGAMNASIEQLYHNVCEMESSDDQSPSRASFISYGAESRIDLELRHLVGDVGEEGESKKEIILEKKEESNGEGSLSQKKPLSNGKKVAKTSPNNPKMPGSRISSRKSPDLGKVSVDEESPELGVVLLKQARELVSSGENLNKALDLALRAVKVFEKCGEGEKQLGLNLVMSLHILAAIYAGLGRYNDAVPVLERSIEIPMIEDGEDHALAKFAGCMQLGDMYGLMGQVENSIMLYTAGLEIQRQVLGESDARVGETCRYLAEAHVQAMQFEEASRLCQMALDIHKENGAAATASIEEAADRKLMGLICDAKGDYEVALEHYVLASMAMSSQNHREDVAAVDCSIGDAYMSLARFDEAIFAYQKALAVFKQGKGETHSSVALVYVRLADLYNKIGKTRDSKSYCENALKIYLKPTPGTPMEEVATGFIEISAIYQSMNELDQALKLLRRALKIYANAPGQQNTIAGIEAQMGVVTYMMGNYSESYDIFKSAISKFRNSGEKKTALFGIALNQMGLACVQRYAINEAADLFEEAKTILEKECGPYHPDTLAVYSNLAGTYDAMGRLDDAIEILEYVVGTREEKLGTANPEVEDEKQRLAALLKEAGRGRSKRNRALLTLLDNNPEIANGQRPVY” stands “failed”. As for “MDVGVVRPQRTEAGWDGGVAPRAGPTRRREACTAYVQRVAGGSGLPEGSSGSEPGPGRSRERPGDAAGGSGNAGCCACPVVSETGGDWLTDSTNRAFSVPGDFQGRRQAEGKTQKVRVQSTGKVPPFPVMKLQVLVLLMSWFGVLSWVQAEFFTSIGHMTDLIYAEKDLVQSLKEYILAEEAKLSKIKSWASKMEALTSKSAADPEGYLAHPVNAYKLVKRLNTDWPALGDLVLQDAAAGFVANLSVQRQFFPTDEDESGAARALMRLQDTYKLDPDMISRGELPGTKYQAMLSVDDCFGMGRSAYNEGDYYHTVLWMEQVLKQLDAGEEATVTKSLVLDYLSYAVFQLGDLHRAVELTRRLLSLDPSHERAGGNLRYFERLLEEERGKSLSNQTDAGLASQENLYERPVDYLPERDVYESLCRGEGIKMTPRRQKRLFCRYHHGNRVPQLLIAPFKEEDEWDSPHIVRYYDVMSDEEIERIKEIAKPKLARATVRDPKTGVLTVASYRVSKSSWLEEDDDPVVARVNRRMQHITGLTVKTAELLQVANYGMGGQYEPHFDFSRSDERDAFKRLGTGNRVATFLNYMSDVEAGGATVFPDLGAAIWPKKGTAVFWYNLLRSGEGDYRTRHAACPVLVGCKWVSNKWFHERGQEFLRPCGTTEVD”, the protein production result is given as “failed”.

“MDVMRSVLGMVVLLTIAFLLSVNKKKISLRTVGAALVLQVVIGGIMLWLPPGRWVAEKVAFGVHKVMAYSDAGSAFIFGSLVGPKMDTLFDGAGFIFGFRVLPAIIFVTALVSILYYIGVMGILIRILGGIFQKALNISKIESFVAVTTIFLGQNEIPAIVKPFIDRLNRNELFTAICSGMASIAGSTMIGYAALGVPVEYLLAASLMAIPGGILFARLLSPATESSQVSFNNLSFTETPPKSIIEAAATGAMTGLKIAAGVATVVMAFVAIIALINGIIGGVGGWFGFEHASLESILGYLLAPLAWVMGVDWSDANLAGSLIGQKLAINEFVAYLNFSPYLQTAGTLDAKTVAIISFALCGFANFGSIGVVVGAFSAVAPHRAPEIAQLGLRALAAATLSNLMSATIAGFFIGLA”: the protein production result is reported as “failed”. Under “MDVTGKSLKRILLSLAVFCILITGPGIACAEEATTQEKEILFSDYFKSMMDMAQDKYKGEITEKQMLEGALKGIFSTMDSYTVYYTVEESQDFFTDINGSYTGIGVVMSEVDGKIVIDKVYPSSPAEEAGIKKGDVIAQVDGKSVENLSLEEVAGLIKGPSGTKVVIGVLRNGTDGVIELEVTRRQIIINPVTHKIEGDIGYIKLESFNSNASKAMEEALKQMDKNNIKKIILDLRDNPGGDVGQAVSIARKFVKKGLITKLDFKSESQKDEEYYSYLEELKYKLVVLVNENSASASEILAGAIQDTGSGILVGTTTFGKGKVQNLYPILTPEAVEKYRKETGETFVNGYDLLEKHGIYPSDEEIIGWVKITTGEYYTPNGRMIDGVGLEPDVYVENEPEGKYKILEGVEKLRKVTKPSLNAQSEDVLNAEKILSALGYDVDTPDNLMDEKTVKAVAEFQRDCGLYSYGVLDFATQQALNDKLDELLLVKNRDKQYEKAVELLEN” stands “failed”. Under “MDVTWTVKYITEFVGTALLIIMGNGAVANVELKGTKAHAQSWMIIGWGYGLGVMLPAVAFGNITSQINPAFTLGLAASGLFPWAHVAQYIIAQVLGAMFGQLLIVMVYRPYYLKTQNPNAILGTFSTIDNVDDNDKKTRLGATINGFLNEFVGSFVLFFGAVAATNIFFGSQSITWMTNYLKGQGADVSSSDIMNQIWVQASGASASKMVAHLFLGFLVMGLVVALGGPTGPGLNPARDFGPRLVHSLLPKSVLGEAKGSSKWWYAWVPVLAPILASLAAVALFKMIYL” stands “failed”.

Turning to “MDWLLTPGPVRLHPKALEALARPQLHHRTEAAREVFLKARGLLREAFRTEGEVLILTGSGTLAMEALVKNLFAPGERVLVPVYGKFSERFYEIALEAGLVVERLDYPYGDTPRPEDVAKEGYAGLLLVHSETSTGALADLPALARAFKEKNPEGLVGADMVTSLLVGEVALEAMGVDAAASGSQKGLMCPPGLGFVALSPRALERLKPRGYYLDLARELKAQKEGESAWTPAINLVLAVAAVLEEVLPRLEEHLALKAWQNALLYGVGEEGGLRPVPKRFSPAVAAFYLPEGVPYARVKEAFAQRGAVIAGGQGPLKGKVFRLSLMGAYDRYEALGVAGMFREVLEEILPAS”, the protein production result was “not failed”. Regarding “MDYFRSPDGPMFMIICGEGPCSGIANDYINESLNKKLNISSGGSDNPWFFFGISYSGALSAWFRLKFPHLTCGSLASSAVVRAIYEFSEFDQQIGESAGQECKLALQETNKLLELGLKVKNKAVKSLFNATELDVDADFLYLTADAAVMAFQYGNPDKLCVPLVEAKKNGSDLVVTYSTYVREYCMRIWGLRVRTYNRKHLRNTVVTADSAYRLWWFQACTELGYFQVAPKYDSVRSHQINTTFHLDLCKSLFGKDVYPKVDATNLYYGGDRLAATKIIFTNGSEDPWRHASKQNSTHEMPSYIIKCRNCGHGSDIRGCPQSPMVIEGKSNNCSLPDYVNKVRQQMVEHIDLWLSECRQSIRSSI”, the protein production result was “not failed”.

For the origin of these results see a protein production outcome set (Wang et al. 2014).
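Note: failed if final PepcDB status was selected cloned or expressed and not failed if soluble or beyond.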
